Results: IntAct's records for PubMed 12681510

B1: Rho guanine nucleotide exchange factor 1 (Homo sapiens), Q92888 (parent)
chain: MEDFARGAASPGPSRPGLVPVSIIGAEDEDFENELETNSEEQNSQFQSLEQVKRRPAHLMALLQHVALQFEPGPLLCCLHADMLGSLGPKEAKKAFLDFYHSFLEKTAVLRVPVPPNVAFELDRTRADLISEDVQRRFVQEVVQSQQVAVGRQLEDFRSKRLMGMTPWEQELAQLEAWVGRDRASYEARERHVAERLLMHLEEMQHTISTDEEKSAAVVNAIGLYMRHLGVRTKSGDKKSGRNFFRKKVMGNRRSDEPAKTKKGLSSILDAARWNRGEPQVPDFRHLKAEVDAEKPGATDRKGGVGMPSRDRNIGAPGQDTPGVSLHPLSLDSPDREPGADAPLELGDSSPQGPMSLESLAPPESTDEGAETESPEPGDEGEPGRSGLELEPEEPPGWRELVPPDTLHSLPKSQVKRQEVISELLVTEAAHVRMLRVLHDLFFQPMAECLFFPLEELQNIFPSLDELIEVHSLFLDRLMKRRQESGYLIEEIGDVLLARFDGAEGSWFQKISSRFCSRQSFALEQLKAKQRKDPRFCAFVQEAESRPRCRRLQLKDMIPTEMQRLTKYPLLLQSIGQNTEEPTEREKVELAAECCREILHHVNQAVRDMEDLLRLKDYQRRLDLSHLRQSSDPMLSEFKNLDITKKKLVHEGPLTWRVTKDKAVEVHVLLLDDLLLLLQRQDERLLLKSHSRTLTPTPDGKTMLRPVLRLTSAMTREVATDHKAFYVLFTWDQEAQIYELVAQTVSERKNWCALITETAGSLKVPAPASRPKPRPSPSSTREPLLSSSENGNGGRETSPADARTERILSDLLPFCRPGPEGQLAATALRKVLSLKQLLFPAEEDNGAGPPRDGDGVPGGGPLSPARTQEIQENLLSLEETMKQLEELEEEFCRLRPLLSQLGGNSVPQPGCT

Variants of: B1
Details: with gna13_human GNA13, Q14344
Chain of gna13_human GNA13, Q14344 (Q14344 whole entry): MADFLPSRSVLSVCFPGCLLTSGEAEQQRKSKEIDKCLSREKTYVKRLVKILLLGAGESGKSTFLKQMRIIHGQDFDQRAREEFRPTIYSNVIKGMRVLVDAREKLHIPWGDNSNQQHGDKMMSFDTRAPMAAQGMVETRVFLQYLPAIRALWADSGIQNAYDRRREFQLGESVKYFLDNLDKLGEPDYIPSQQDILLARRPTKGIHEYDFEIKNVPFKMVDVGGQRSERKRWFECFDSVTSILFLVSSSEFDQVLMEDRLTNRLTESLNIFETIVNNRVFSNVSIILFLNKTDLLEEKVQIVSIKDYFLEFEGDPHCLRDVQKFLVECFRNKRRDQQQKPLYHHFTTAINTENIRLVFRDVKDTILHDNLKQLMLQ
E27A;E29A was tested, and the “effect of a mutation on the interaction” value was “decreasing interaction”.

Variants of: B1
Details: with gna13_human GNA13, Q14344
Remark: another data set of the same source
E27A;E29A was tested, and the “effect of a mutation on the interaction” value was “decreasing interaction”.
